Test in all cases: cell-based or functional assay
One experiment has as its target HIPK2(h) (human, UniProt Q9H2X6 165-564, limits assumed).
A further experiment concerns the target T1, Ret(V804M)(h) (human, UniProt P07949 658-1114, limits assumed).
T1 sequence (looked up): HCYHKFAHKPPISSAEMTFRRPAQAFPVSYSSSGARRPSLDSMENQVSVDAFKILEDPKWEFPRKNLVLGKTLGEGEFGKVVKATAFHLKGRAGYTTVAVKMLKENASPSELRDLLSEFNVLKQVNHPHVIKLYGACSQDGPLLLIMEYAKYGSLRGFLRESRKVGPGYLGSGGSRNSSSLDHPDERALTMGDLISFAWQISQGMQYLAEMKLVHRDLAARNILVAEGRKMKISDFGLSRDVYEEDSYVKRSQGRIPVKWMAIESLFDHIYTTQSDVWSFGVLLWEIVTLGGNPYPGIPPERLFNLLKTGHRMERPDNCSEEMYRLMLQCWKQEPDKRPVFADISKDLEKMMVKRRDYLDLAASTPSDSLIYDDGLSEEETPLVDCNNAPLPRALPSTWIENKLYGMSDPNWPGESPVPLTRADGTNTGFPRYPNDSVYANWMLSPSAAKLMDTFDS

Another experiment deals with T2, SGK(h) (human, UniProt O00141 60-431, limits assumed).
T2 sequence (looked up): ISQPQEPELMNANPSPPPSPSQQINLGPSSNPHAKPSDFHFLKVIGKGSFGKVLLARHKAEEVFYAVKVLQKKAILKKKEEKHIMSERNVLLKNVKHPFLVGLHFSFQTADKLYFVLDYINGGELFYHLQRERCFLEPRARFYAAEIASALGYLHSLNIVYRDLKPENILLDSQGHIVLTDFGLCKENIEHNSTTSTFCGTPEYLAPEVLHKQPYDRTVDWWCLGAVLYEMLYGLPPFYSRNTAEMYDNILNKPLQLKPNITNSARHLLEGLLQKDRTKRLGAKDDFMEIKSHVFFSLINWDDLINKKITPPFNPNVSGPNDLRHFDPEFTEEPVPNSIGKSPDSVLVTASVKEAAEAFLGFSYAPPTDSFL

A further experiment addresses T3, TAO2(h) (human, UniProt Q9UL54 1-314, limits assumed).
T3 sequence (looked up): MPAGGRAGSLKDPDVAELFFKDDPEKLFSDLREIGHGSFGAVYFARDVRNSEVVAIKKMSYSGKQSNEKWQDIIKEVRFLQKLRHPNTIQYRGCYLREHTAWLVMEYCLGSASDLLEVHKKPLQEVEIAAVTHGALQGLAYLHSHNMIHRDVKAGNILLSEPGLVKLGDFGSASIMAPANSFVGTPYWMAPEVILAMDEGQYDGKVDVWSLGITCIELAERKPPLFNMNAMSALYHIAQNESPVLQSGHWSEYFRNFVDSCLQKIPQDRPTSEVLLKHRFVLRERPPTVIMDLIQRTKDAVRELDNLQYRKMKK

The target in another experiment is T4, Tec(h)activated (human, UniProt P42680 1-631, limits assumed).
T4 sequence (looked up): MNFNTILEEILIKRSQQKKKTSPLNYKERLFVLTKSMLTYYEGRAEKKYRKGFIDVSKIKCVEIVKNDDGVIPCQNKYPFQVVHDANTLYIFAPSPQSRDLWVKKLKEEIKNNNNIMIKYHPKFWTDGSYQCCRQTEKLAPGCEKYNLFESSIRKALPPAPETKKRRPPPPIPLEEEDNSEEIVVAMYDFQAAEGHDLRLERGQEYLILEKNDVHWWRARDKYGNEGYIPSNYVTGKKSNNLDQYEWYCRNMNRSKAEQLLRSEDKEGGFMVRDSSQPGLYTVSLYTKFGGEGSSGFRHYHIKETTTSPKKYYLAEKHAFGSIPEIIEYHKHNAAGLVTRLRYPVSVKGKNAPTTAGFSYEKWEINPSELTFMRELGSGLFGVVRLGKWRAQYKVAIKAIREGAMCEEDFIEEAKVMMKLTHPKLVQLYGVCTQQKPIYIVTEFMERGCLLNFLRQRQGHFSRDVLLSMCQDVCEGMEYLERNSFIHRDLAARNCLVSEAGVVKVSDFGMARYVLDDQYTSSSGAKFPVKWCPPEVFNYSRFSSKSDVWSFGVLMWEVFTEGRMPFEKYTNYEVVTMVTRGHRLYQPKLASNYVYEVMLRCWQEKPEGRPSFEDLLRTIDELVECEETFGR

The target of another experiment is T5, TSSK1(h) (human, UniProt Q9BXA7 1-367).
T5 sequence (looked up): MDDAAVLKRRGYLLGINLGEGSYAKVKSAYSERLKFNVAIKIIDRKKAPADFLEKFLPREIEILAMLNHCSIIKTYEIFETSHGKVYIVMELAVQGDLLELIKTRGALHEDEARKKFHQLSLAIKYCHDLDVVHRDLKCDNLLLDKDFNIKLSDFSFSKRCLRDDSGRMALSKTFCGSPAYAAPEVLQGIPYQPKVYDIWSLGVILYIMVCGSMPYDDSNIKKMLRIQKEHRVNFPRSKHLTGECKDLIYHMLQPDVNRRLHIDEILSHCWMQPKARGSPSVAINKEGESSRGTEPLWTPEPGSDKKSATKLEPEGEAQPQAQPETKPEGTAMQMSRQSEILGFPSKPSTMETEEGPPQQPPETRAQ

The target in the next experiment is CK2(h) (human).

HIPK2(h), sequence (Q9H2X6 165-564 limits assumed): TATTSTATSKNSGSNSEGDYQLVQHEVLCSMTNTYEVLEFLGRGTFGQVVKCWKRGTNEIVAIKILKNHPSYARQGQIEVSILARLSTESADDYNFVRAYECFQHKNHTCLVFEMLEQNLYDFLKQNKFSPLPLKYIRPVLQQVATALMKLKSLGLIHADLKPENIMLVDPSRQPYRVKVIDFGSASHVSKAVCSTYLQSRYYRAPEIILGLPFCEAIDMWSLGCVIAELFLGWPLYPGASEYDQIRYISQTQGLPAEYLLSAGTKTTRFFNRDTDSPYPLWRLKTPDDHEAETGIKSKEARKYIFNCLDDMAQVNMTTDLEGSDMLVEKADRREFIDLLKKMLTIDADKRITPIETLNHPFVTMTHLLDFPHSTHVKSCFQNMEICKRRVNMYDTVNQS

B1: MMI-0400 (peptide)
peptide: KAFAKLAARLYRKALARQLGVAA
Regarding B1, the “% activity, 100 µM” value in the experiment with HIPK2(h) amounted to 90%; with Ret(V804M)(h) it was 87%; with SGK(h), 54%; with TAO2(h), 74%; in the experiment with Tec(h)activated it was 29%; with TSSK1(h), 79%. Further, in the experiment with CK2(h), the “% activity, 100 µM” value was determined as 101%.

B2: MMI-0300 (peptide)
peptide: FAKLAARLYRKALARQLGVAA
For the molecule B2, the “% activity, 100 µM” value is 73% with HIPK2(h); 95% with Ret(V804M)(h); 48% with SGK(h); 70% with TAO2(h); 56% with Tec(h)activated; 79% with TSSK1(h). The “% activity, 100 µM” value with CK2(h) was determined as 90%.
